Measurements from paper PMC10148881, “Recognition of an Ala-rich C-degron by the E3 ligase Pirh2” (Nature Communications, 2023).

T1: Pirh2 NTD + RING (residues 1–189) (human, UniProt Q96PM5 1-189)
T1 construct: human Pirh2 (Rchy1), NTD + RING, residues 1–189; source: E. coli BL21 (DE3), purified (Ni-NTA, TEV cleavage, SEC); not shown: 8xHis-SUMO, N-terminal, cleaved
T1 sequence (looked up): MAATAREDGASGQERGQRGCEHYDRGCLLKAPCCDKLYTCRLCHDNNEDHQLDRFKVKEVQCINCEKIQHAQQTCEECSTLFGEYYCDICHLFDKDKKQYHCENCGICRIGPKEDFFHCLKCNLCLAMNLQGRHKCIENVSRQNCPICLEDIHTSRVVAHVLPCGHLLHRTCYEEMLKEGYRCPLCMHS

T2: full-length Pirh2 (residues 1–261) (human, UniProt Q96PM5 1-261)
T2 construct: human Pirh2 (Rchy1, RING finger and CHY zinc finger domain-containing protein 1), residues 1–261; Cloned into pET28-MKH8SUMO; the tag was cut off with TEV protease; also called Rchy1; p53-induced RING-H2 protein; source: E. coli BL21 (DE3), purified (Ni-NTA, TEV cleavage, SEC); not shown: 8xHis-SUMO, N-terminal, cleaved
T2 sequence (looked up): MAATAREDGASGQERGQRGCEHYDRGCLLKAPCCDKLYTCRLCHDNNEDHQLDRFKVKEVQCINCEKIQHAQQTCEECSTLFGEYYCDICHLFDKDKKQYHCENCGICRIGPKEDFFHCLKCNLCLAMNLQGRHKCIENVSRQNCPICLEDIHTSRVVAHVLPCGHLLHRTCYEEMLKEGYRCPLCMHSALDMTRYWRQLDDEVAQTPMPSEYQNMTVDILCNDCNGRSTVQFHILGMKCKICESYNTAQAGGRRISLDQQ

T3: Pirh2 NTD (residues 1–137) (human, UniProt Q96PM5 1-137)
T3 construct: human Pirh2 (Rchy1), NTD, residues 1–137; also called CHY zinc finger; source: E. coli BL21 (DE3), purified (Ni-NTA, TEV cleavage, SEC); not shown: 8xHis-SUMO, N-terminal, cleaved
T3 sequence (looked up): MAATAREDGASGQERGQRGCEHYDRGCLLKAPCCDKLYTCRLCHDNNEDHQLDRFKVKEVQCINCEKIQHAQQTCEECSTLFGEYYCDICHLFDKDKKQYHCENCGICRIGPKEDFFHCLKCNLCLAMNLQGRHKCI

B1: Ala6/C-degron peptide (sequence: YKTSAAAAAA) (peptide)
peptide: YKTSAAAAAA
notes: decapeptide with a C-terminal six-Ala degron and a free C-terminus; also called decapeptide containing the Ala6/C-degron; six-Ala peptide; source: synthetic peptide

Tests used:
Test in all cases: ITC; peptides (0.6–1.0 mM) titrated into the cell with 180–220 μM protein at 16 °C; 20 mM Tris-HCl pH 7.5, 150 mM NaCl, 10 μM Zn2+; one-site binding model
Details in all cases: both partners purified
[1] = molecular target: T1, Pirh2 NTD + RING (residues 1–189)
[2] = molecular target: T2, full-length Pirh2 (residues 1–261)
[3] = molecular target: T3, Pirh2 NTD (residues 1–137)

| Binder | Kd [1] | Kd [2] | Kd [3] |
| --- | --- | --- | --- |
| YKTSAAAATA [Ala6/C-degron peptide with the threonine mutation of Ala-2] | 15 µM | – | – |
| B1 | 0.5 µM | 0.9 µM | 5.5 µM |
